Measured values from US20170081417A1 (Kyowa Kirin, published 2017).
Numbering of substitutions follows the chain as printed.

T1: human OX40 (CD134), full length, expressed on cells (activated human T cells); EL4-OX40 and CHO-OX40 … (human, UniProt P43489 29-277)
T1 construct: also called TNFRSF4; surface expressed OX40
T1 sequence: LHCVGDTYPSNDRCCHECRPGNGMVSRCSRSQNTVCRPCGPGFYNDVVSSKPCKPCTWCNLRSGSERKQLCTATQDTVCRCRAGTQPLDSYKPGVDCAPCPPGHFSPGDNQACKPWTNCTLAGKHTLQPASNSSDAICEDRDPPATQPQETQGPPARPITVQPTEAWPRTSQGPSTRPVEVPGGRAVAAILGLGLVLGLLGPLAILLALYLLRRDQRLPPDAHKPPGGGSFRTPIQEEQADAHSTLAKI

B1: 112Y55 human anti-human OX40 monoclonal antibody (hybridoma ATCC No. PTA-7220) (antibody, V domains shown)
VH: QITLKESGPTLVKPTQTLTLSCTFSGFSLSTSGVGVGWIRQPPGKALEWLALIHWDDAERYSPSLKSRLTITKDTSKNQVVLTMTNMDLVDTATYYCAHTRGAFDIWGQGTMVTVSS
VL: EIVLTQSPGTLSLSPGERAILSCRASQSVSSSFLAWYQQKPGQAPRLLIYGAFSRATGIPDRFSGSGSGTDFTLTISRLEPEDFAVYYCQQYDSSRTFGQGTKVEIK
B2: 112Y131 human anti-human OX40 monoclonal antibody (hybridoma ATCC No. PTA-7218) (antibody, V domains shown)
VH: B1 VH with S21T, H54Y, A58H, E59S, R60P, L89P, H99R
VL: EIVLTQSPATLSLSPGERATLSCRASQGVSSYLAWYQQKPGQAPRLLIYDASNRATGIPARFSGSGPGTDFTLTISSLEPEDFAVYYCQQRSNWHPTFGQGTKVEIK

Columns and labels:
[1] = molecular target: T1, human OX40 (CD134), full length, …; assay: flow cytometry, blocking of OX40L-FLAG binding to activated human T cells
Source text: (§1) The activated T cells were also stained with mouse anti-human OX40 antibody L106 (Becton Dickinson), which was directly conjugated to phycoerythrin or whose binding was detected with anti-mouse IgG-PE (Southern Biotechnology Associates.) OX40L Blocking Assays: To determine if the anti-human OX40 antibodies could block OX40L binding to soluble OX40 both ELISA and flow cytometric protocols were used. In the ELISA 96 well Nunc flat bottom plates were coated with recombinant soluble hOX40:hFc at 2 μg/ml in carbonate buffer (pH9.4) for one hour at 37° C. The plates were washed with PBS/0.1% Tween 20 and Superblock (Pierce) was added to the wells to block non-specific binding. The test antibodies were diluted to 1 μg/ml in PBS/Tween and added to the plates. After one hour incubation at 37° C., FLAG tagged recombinant soluble human OX40L (Alexis Biochemicals, San Diego, Calif.) was added to the appropriate wells without washing out the anti-OX40 antibodies. Following one hour incubation, the plates were washed and an anti-FLAG-peroxidase conjugated antibody (Sigma) was added to the wells for one hour at 37° C. The TMB substrate was added, after ten minutes the reaction was stopped with H₂SO₄, and the results were read at 450 nm using a microplate reader. In the flow cytometric assay, human CD4+ T cells were purified and activated with PHA+IL2 for two days. The cells were washed and resuspended in staining buffer and then incubated with increasing amounts of human anti-human OX40 antibodies for twenty minutes on ice, from 0.005-50 μg/ml. Soluble recombinant OX40L-FLAG was then added to the cells. The cells were washed and incubated with anti-FLAG conjugated to PE (Sigma). After another wash, the cells were fixed with 1% paraformaldehyde and analyzed on a FACScan or FACScalibur.
Slightly different results were obtained when a flow cytometric based assay was used to monitor blockade of soluble OX40L binding to activated human T cells that express OX40 (FIG. 5B). Activated human T cells were labeled with anti-OX40 antibodies followed by soluble flag tagged-human OX40L. Binding of OX40L was detected with anti-FLAG-PE antibody. Percent inhibition was determined using the same formula, i.e., (100−(sample/maximum binding))*100.

[2] = molecular target: T1, human OX40 (CD134), full length, …; assay: cell-based or functional assay
[3] = molecular target: T1, human OX40 (CD134), full length, …; assay: flow cytometry titration on activated human T cells, anti-human IgG-PE
Procedure: as §1, with “Following twenty minute incubation on ice, the cells were washed once and fixed ten minutes with 1% paraformaldehyde. After a final wash the cells were resuspended in staining buffer and the samples were acquired using FACScan or FACS Calibur flow cytometers (Becton Dickinson Biosciences, Palo Alto, Calif.), and the data were analyzed using Cellquest (Becton Dickinson Biosciences) or Flow Jo (TreeStar, Inc., San Carlos, Calif.) software. The activated” for “The activated”

Binder | IC50 [1] [µg/mL] | ADCC % Lysis at 10 µg/ml [2] [%] | BMAX Geo Mean [3] | Kd [3] [nM]
B1 | 0.9 | 54.2 | 162 geometric mean fluorescence | 14
B2 | 0.91 | 18 | 171 geometric mean fluorescence | 25
